Patent US9273290B2, “Method for producing phosphite dehydrogenase protein and use thereof” (priority 2011, dated 2016)
“And” between values parts separate entries of the source, which are not always exact repeats. Identical values can stand only once.

Tests used:
[1] = substrate: NC(=O)c1ccc[n+]([C@@H]2O[C@H](COP(=O)([O-])OP(=O)(O)OC[C@H]3O[C@@H](n4cnc5c(N)ncnc54)[C@H](O)[C@@H]3O)[C@@H](O)[C@H]2O)c1; assay: purified protein, by the assay type; conditions: 40° C.
[2] = substrate: NC(=O)c1ccc[n+]([C@@H]2O[C@H](COP(=O)([O-])OP(=O)(O)OC[C@H]3O[C@@H](n4cnc5c(N)ncnc54)[C@H](O)[C@@H]3O)[C@@H](O)[C@H]2O)c1; assay: Reaction kinetic analysis: NADH production rate at varied NAD+ concentration; assay type: biochemical, Pseudomonas stutzeri WM88; conditions: 28° C.
Excerpt: By a well-known method, the base sequence of SEQ ID NO: 2 or a phosphite dehydrogenase gene (SEQ ID NO: 4) of P stutzeri WM88 was inserted into a plasmid pET21b (produced by Novagen) (an amino acid sequence of the protein encoded by the base sequence of SEQ ID NO: 4 is shown in SEQ ID NO: 3) to prepare (i) an expression vector of a fusion protein (see “PtxD4506” in FIG. 2) in which the C-terminal of the phosphite dehydrogenase protein of SEQ ID NO: 1 is labeled with a His tag or (ii) an expression vector of a fusion protein (see “PtxDPst” in FIG. 2) in which the C-terminal of the phosphite dehydrogenase protein of P stutzeri WM88 is labeled with a His tag.
The supernatant was supplied to a HisTrap column (produced by GE Healthcare) and, in accordance with protocols attached to the HisTrap column, a fusion protein in which a His tag was connected to the C-terminal of the phosphite dehydrogenase protein of SEQ ID NO: 1 was purified.
PtxD4506 and PtxDPst, which were purified with use of the HisTrap column in [3. Expression of Phosphite Dehydrogenase Protein By Using Escherichia Coli], were compared with each other in terms of reaction rate. The following description discusses how measurement of reaction rates was carried out.
Reaction rates of respective PtxD4506 and PtxDPst were calculated on the basis of (Reaction formula 1) shown in the section [Background Art].
Specifically, in the reaction system of (Reaction formula 1), a production rate of NADH was measured with use of 7.5 μg of each of the fusion proteins PtxD4506 and PtxDPst while a concentration of a substrate (NAD^+) was gradually changed from 0.5 μM to 200 μM. Note that a reaction temperature of the fusion protein PtxD4506 was 40° C., and a reaction temperature of the fusion protein PtxDPst was 28° C.
Based on the measured concentration of the substrate (NAD^+) and the measured production rate of NADH, values of Km (μM), Vmax (μmol/min/m), Kcat (min^−1), and Kcat/km were calculated in accordance with a well-known enzyme kinetic method (see, for example, “Fundamental Experiment Method of Proteins and Enzymes (2nd revised edition), Nankodo Co., Ltd.”). Note that the experiment was carried out three times, and values of Km, Vmax, Kcat, and Kcat/km were calculated in each of the experiments. Then, for each of Km, Vmax, Kcat, and Kcat/km, an average of the values calculated in the three experiments was obtained and defined as the value of each of Km, Vmax, Kcat, and Kcat/km. Kcat was calculated by the formula: Kcat=Vmax (μmol/min/mg)×(MW/10^3).

[3] = other: NAD+ 0.5 μM to 200 μM, individual experiments 1-3
[4] = other: NAD+, average of three experiments

B1: Ralstonia sp. strain 4506 phosphite dehydrogenase, SEQ ID NO: 1, C-terminal His tag fusion (PtxD4506) (Ralstonia sp. 4506) (protein)
chain: MKPKVVLTHWVHPEIIELLSASADVIPNTTRETLPRSEVIARAKDADALMAFMPDSIDSAFLEECPKLRVIGAALKGYDNFDVNACTRHGVWLTIVPDLLTIPTAELTIGLLLGLTRHMLEGDRQIRSGHFQGWRPTLYGSGLTGKTLGIIGMGAVGRAIAQRLAGFEMNLLYCDPIPLNAEQEKAWHVQRVTLDELLEKCDYVVPMVPMAAETLHLIDATALAKMKTGSYLINACRGSVVDENAVIAALASGKLAGYAADVFEMEEWIRADRPQAIPKALLDNTAQTFFTPHLGSAVKEVRLEIERQAAMNIIQALAGEKPMGAINQPYPGVKAA
[1]; [3]
  Km: 22.6 µM and 23.3 µM and 25.1 µM
[1]; [4]
  Km: 23.7 µM
  Vmax: 5.9 µmol/min/mg
  kcat: 3.957 s⁻¹

B2: Pseudomonas stutzeri WM88 phosphite dehydrogenase, wild type, SEQ ID NO: 3, C-terminal His tag fusion (PtxDPst) (Stutzerimonas stutzeri) (protein)
chain: MLPKLVITHRVHDEILQLLAPHCELMTNQTDSTLTREEILRRCRDAQAMMAFMPDRVDADFLQACPELRVVGCALKGFDNFDVDACTARGVWLTFVPDLLTVPTAELAIGLAVGLGRHLRAADAFVRSGEFQGWQPQFYGTGLDNATVGILGMGAIGLAMADRLQGWGATLQYHEAKALDTQTEQRLGLRQVACSELFASSDFILLALPLNADTQHLVNAELLALVRPGALLVNPCRGSVVDEAAVLAALERGQLGGYAADVFEMEDWARADRPRLIDPALLAHPNTLFTPHIGSAVRAVRLEIERCAAQNIIQVLAGARPINAANRLPKAEPAAC
notes: His tag (C); made in house; host or cells: E. coli Rosetta2 (DE3), plasmid pET21b
[2]; [3]
  Km: 74.4 µM and 71.2 µM and 74.7 µM
[2]; [4]
  Km: 73.4 µM
  Vmax: 4.2 µmol/min/mg
  kcat: 2.827 s⁻¹
